{
  "source": "patent CN105524169A",
  "about": "(UNIV NANCHANG, dated 2016)",
  "binders": {"B1": {"name": "抗前列腺特异性膜抗原单域重链抗体噬菌体阳性克隆 (phage clone displaying the anti-PSMA single-domain heavy-chain antibody) (VHH)", "VHH": "QVQLVESGGGLVQAGGSLRLSCAASGRTISRYAVGWFRQAPGKDREFVAGITRSSSLTGYTDSVKGRFTISRDNAENTVYLQMNSLKPEDTAVYYCAGGPGSYKYWGKGTQVTVSS", "notes": "detected with anti-M13 antibodies; also called 展示本发明所述纳米抗体的噬菌体克隆; not shown: hinge/linker and coat protein fusion are not described"}},
  "key": {"[1]": {"molecular_target": "T1, PSMA on LNCaP prostate cancer cells (UniProt Q04609 1-750, limits assumed)", "T1 construct": "whole, on cells; Cells fixed with 4% paraformaldehyde before the assay; also called 前列腺特异性膜抗原; LNCaP细胞(表达PSMA)", "T1 sequence (Q04609 whole entry)": "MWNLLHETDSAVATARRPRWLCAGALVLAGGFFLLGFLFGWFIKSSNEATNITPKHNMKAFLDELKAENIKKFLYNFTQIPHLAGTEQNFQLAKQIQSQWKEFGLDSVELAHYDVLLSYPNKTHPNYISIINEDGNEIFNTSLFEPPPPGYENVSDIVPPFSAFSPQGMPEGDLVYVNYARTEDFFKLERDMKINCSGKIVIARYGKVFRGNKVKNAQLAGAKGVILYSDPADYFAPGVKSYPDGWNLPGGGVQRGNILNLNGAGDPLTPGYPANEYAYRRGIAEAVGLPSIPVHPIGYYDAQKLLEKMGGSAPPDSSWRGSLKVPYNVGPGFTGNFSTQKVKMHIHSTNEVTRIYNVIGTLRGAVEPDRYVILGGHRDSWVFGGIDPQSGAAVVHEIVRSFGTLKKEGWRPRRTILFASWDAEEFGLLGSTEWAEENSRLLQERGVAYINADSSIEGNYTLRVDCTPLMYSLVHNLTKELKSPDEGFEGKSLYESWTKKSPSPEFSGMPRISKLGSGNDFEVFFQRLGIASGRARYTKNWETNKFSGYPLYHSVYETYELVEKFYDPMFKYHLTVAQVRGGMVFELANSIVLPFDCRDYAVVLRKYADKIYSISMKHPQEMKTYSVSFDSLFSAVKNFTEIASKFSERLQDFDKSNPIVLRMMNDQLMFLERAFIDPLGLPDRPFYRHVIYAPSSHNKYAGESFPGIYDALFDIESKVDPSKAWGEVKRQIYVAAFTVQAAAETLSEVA", "assay": "cell ELISA on fixed LNCaP (PSMA+) against MKN45 (PSMA-) cells, HRP-anti-M13, OD450"}, "[2]": {"molecular_target": "T2, PSMA胞外区蛋白 (recombinant extracellular region of prostate specific membrane antigen, expressed in HEK-293) (UniProt Q04609 44-750, limits assumed)", "T2 construct": "extracellular domain; also called 前列腺特异性膜抗原膜外区; PSMA蛋白", "T2 sequence (Q04609 44-750 limits assumed)": "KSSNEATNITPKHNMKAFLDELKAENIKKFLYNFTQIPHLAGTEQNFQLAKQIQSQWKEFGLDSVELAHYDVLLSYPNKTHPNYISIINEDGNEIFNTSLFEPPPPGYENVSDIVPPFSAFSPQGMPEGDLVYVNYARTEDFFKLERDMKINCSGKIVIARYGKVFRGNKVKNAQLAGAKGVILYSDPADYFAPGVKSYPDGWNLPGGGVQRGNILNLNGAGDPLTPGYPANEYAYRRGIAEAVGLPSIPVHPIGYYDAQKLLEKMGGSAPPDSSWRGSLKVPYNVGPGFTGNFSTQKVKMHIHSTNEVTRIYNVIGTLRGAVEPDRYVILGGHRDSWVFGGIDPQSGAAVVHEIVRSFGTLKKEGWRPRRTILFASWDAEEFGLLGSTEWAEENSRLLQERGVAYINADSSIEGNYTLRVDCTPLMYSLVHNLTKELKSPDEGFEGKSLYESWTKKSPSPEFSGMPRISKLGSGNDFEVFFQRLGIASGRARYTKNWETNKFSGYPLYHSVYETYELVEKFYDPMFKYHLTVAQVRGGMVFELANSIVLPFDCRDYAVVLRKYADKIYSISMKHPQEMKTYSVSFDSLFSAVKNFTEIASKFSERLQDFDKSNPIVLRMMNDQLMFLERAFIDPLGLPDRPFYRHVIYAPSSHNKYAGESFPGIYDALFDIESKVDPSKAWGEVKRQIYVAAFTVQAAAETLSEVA", "assay": "indirect phage ELISA, PSMA extracellular region protein coated at 5 μg/mL, HRP-anti-M13 detection"}},
  "data": [
    {"binder": "B1", "values": [
      {"measurement": "binding result", "setting": "[1]", "value": "binds"},
      {"measurement": "binding result", "setting": "[2]", "value": "binds"}
    ]}
  ]
}
